Assay results taken from the nanobody polyreactivity screen of Harvey et al. (2022).

Assay: yeast display, Sf9 membrane polyspecificity reagent, FACS + sequencing; frameworks hold sequencing errors
Summary of the method: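 A synthetic nanobody library was expressed on Saccharomyces cerevisiae BJ5465 by galactose induction for 36–48 hours. The library was stained for 1 hour at 4 °C with 10% biotinylated, detergent-solubilized Sf9 membrane reagent and enriched with streptavidin microbeads before FACS. Low and high (top ~1%) gates were set on anti-HA fluorescence for expression and streptavidin fluorescence for reagent binding, and each polyreactivity label reflects the gate of origin.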

Sequence	polyreactivity (PSR sort gate)
QVQLVESGGGLVQAGGSLRLSCAASGSTFPGYAMGWYRQAPGKERELVAAINWRGDSTYYADSVKGRFTISRDNAKNTVYLEMNSLKPEDPAVYFCNTVWGSPSRSSAYDYWGQGTQVTVSS	high polyreactivity
QVQLVESGGGLVQAGGSIRLTCAASGSIFKLYAMGWYRQATGKERELVAAISWRGGSTYYADSVKGRFTISRDIAKNTVYLQMNSLKPEDTAVYYCAAEYRQYDYWGQGTQVTVSS	high polyreactivity
QVHLVESGGGLVQAGGSLRLSCAASGSTFFIYTMGWYRQAPGKEREFVAAISWTGGRTYYADSVKGRFTISRDNAKNTVYLQMNSLKPEDTAVYYCAARYKYSSYDYWGEGTQVTVSS	high polyreactivity
QVQLVESGGGLVQAGGSLRLSCAASGSIISDYALGWYRPAPGKERELVAGISSGGGTTYADSVKGRFTISRDNAKNTVYLQMNSLKPEDTAVYYCNKQDQPVGRSGYPYGYDYWGQGTQVTVSS	low polyreactivity
QVQLVESGGGLVQAGGSLRLSCAASGRIFYYNALGWYRPAPGKERELVAAISWSGGSTYYADSVKGRFTISRDNATNTVYLQMNSLKPEDTAVYYCAVDVYGYTPRPTREPLIYEYWGQGTQVTVSS	low polyreactivity
QVQLVESGGGLVQAGGSLRLSCAASASIVFTYVMGCYSQAPWKERELVSAITSDDNTNYADSVKGRFTISRVNAKNTVYLQMNSLKPEDTAVYYCNADTTLYPYYEYGYYDYDYWGHGTQVTVSS	low polyreactivity
QVQLVESGGGLVQEGGSLRLICAASGFIFRYYAMGWYRQAPGKERELVAAISRSGGSTSYADSVKGRFTISRDNAKITGDFQMNSLKPEDSAVYYCAKYVAFHYKQYDFNWGQGTQVYVSS	high polyreactivity
QVQLVDSGGGLVQAGGSLRLSCAASGSTFTTNGMGGYRQAPGKERELVAAITRGGSTNYADSVKGRFTISRDNAKNTVFLQMNSLKPEDTAVYYCAAQNYWYYPRRFDYWGQGTQVTVSS	high polyreactivity
QVQLVESGGGLVQAGGSLRLSCAASGRTFYIYARGWYRKAPGKERELVAAITYGGGRTFYADSVKGRFTISRDNAKYTVYLQMNSLKPEDNAVYYCAATVRGKRSTYDYWGQGTQVTVSS	high polyreactivity
QVQLVESGGGLVQAGGSLRLSCAASGFTFSYNAMGWYRQAPGKERELVAAISSTGTSTYYADSVKGRFTISRDNAKNTVYLQMNSLKPEDTAVYYCNAYGYDGYYAGRHGYWGQGTQVTVSS	low polyreactivity
QVQLVESGGGLVQAGGSLRLSCAASGSTFGSYAMGWYRQAPGKERELVAAISRAGSTYADSVKGRFTISRDNAKNTVYLQMNSLKPEDTAVYYCAKRDNALYYGYDYWGQGTQVTVSS	low polyreactivity
QVQLVESGGGLLQAGGSLRLSCAASGSTYFGNAMGWDRQAPGKERELVAAITSGGSTNYADSVKGRFTISRDNAKNTVYLQMNSLKPEDTAVYYCAKPSRWGWTGFYAYDYWGQGTQVTVSS	low polyreactivity
QVQLVASGGALVQAGGSLRLSCAASGRISTYTMGWYRQGPGKERELVATISTDASTNYADSVKGRFTISRDNAKNTVYLQMNSLKPEATAVYYCAAVIVNQDYDYWGQGTQLTVSS	low polyreactivity
QVQLVDSGGGLVQAGGSLRLSCAASGRTLAGYVMGWYRQAPGKERELVATISNGGSTYYADSVKGRFTISRDNAKNTVYLQMNSLKPEDTAVYYCNRYWYRKHSTDPPVRYRPVGYWGQGTQVTVSS	high polyreactivity
QVQLVESGGGLVQAGGSLRLSCAASGYTFPLYAMGWYRQAPGKERELVADINIGGASTYYADSVKGRFTISRDNAKNTVYLQMNSLKPEDTAVYYCAADSRKRQGYGYWGQGTQVTVSS	low polyreactivity
QVQLVESGRGLVQAGVSLRLSCAASGSTFGYYAMGWYRQAPGKERELVAAISYSGGSTYYADSVKGRFTISRDNAKNTVYLQMNSLKQEDTAVYYCAARFTRQMYYWGQGTQVNVSS	high polyreactivity
QVQLVESGGGLVQAGGSLRLSCAASGSIFKYYAMGWYRQARGKERELVAVITSGGSTYYADSVKGLFTISRDNAKNTVYLQMNSLKPEDTAVYYCAAGVRAYNWGEYDYWGQGTQVTVSS	low polyreactivity
QVQLVESGGGLVQAGGSLRLSCAASGSTFGPNAMGWYRQAPGKERELVAAIRSNGGRTYYADSVKGRFTISRDNAKNTVYLQMNSLKPEDTAVYYCAAPHYPYDTPYGYWGQGTQVTVSS	low polyreactivity
QVQLVESGGGLVQAGGSLRLSCAASGLIFYANVMGWYRQAPGKERELVAAISRSGTSTYYADSVKGRFTISRDNAKNTVYFQMNSLKPEDTAVYYCAADFVKRQANRQFDYWGQGTQVTVSS	high polyreactivity
QVHLVESGGGLVQAGGRLRLSCAASGGTFYYNAMGRYRHATGKERELVAGITQSGGNTYYADSVKGRFTISRDNAKNTVYLHMNSLKPEDTVVYYCAARIRGTWKYGYWGQGTQVTVSS	low polyreactivity
LGQLVESGGGLVQAGGSLRLSCAASGFIFYYYDMGLYRQAPGKESELVATISRGGSRYYADSVKGRFTISRDNAKNTVYLQMNSLKPEDTAVYYCAAYRSFGYRNWNRFDYWGQGTQVTVSS	high polyreactivity
QVQLVESGGGLVQAGGSLRLSCAASGSIFFYYAMGWYRQAPGKERELVAAIRSGTSTNYADSVKGRFTISRDNAKNTVYLQMNSLKPEDTAVYYCAARFPGGGYGMDYWGQGTKVTVSS	low polyreactivity

Sequence	polyreactivity (PSR sort gate)
QVQLVESGGGLVQAGGSLRLSCAASGRTFRRYAMGWYRQAPGKERELVAAITRGGSTNYADSVKGRFTISRDNAKDTVYLQMNSLKPEDTAVYYCAKDPLATFYGYWGQGTQVTVSS	high polyreactivity
QVQLVESGGGLVQAGGSLRLSCAASGSIFNLYTMGWYRQAPGKEREFVSAISSSGTSTYYADSVKGRFTISRDNAKNTVYLQMNSLKPEDTAVYYCAADWTGGFYTWYVIPYDYWGQGTQVTVSS	low polyreactivity
QVQLVESGGGLVQAGGSLRLSCAASGIIFDLNAMGWYRQAPGKERELVAAITSGGSTYYADSVKGRFTISRDNAKNTVYLQMNSLKPEDTAVYYCAADYQAGDKLYDYWGQGTQVTLSS	low polyreactivity
QVQLVESGGGLVQAGGSLRLSCAASGRIFTAYYAMGWYRQAPGKERELVASISSSGTSTYADSVKGRFTISRDNAKNTVYLQMNSLKPEDTAVYYCATRKLRTRRYDYGYWGQGTQVTVSS	low polyreactivity
QVQLVESGVGLVQAGGSLRLSCAASGSTLPYYAMGWYRQAHGKERQMVAAITTSGGDTYSADSVKGRFTISRDNAKNTVYLQMNSLKPEDTAVYYCAISYSARSTVRKLFYFAYDYWGQGTQVTVSS	low polyreactivity
QVQLVESGGGLVQAGGSLRLSCAASGITLGGNGMGWYRQAPGKERELVAAISQSGGTTYYADSVKGRFTISRDNAKNTVYLQMNSLKPEDTAVYYCNALWRGHGRYNYWGQGTQVTVSS	low polyreactivity
QVQLVESGGGLVQAGGSLRLSCAASGFTFHYYAMGWYRQAPGKERELVAAISSSGGNTYYADSVKGRFTISRDNAKNTVYLQMNSLKPEDTEVYYCNAYSFFLGGYDYWGQGTQVTVSS	high polyreactivity
QVQLVESGGALVQAGGSLRLSCAASGSISTYAIGWYRQAPGKERELVAAMNKRGGSTYYADSVKGRFTISRDNAKNTVDLQMNSLKPADTAVDYCAAGLAHSAAFDYWGQGTQVTVSS	low polyreactivity
QVQLVESGGGLVQAGGSLRLSCAASGRTFQDNAMGWYRQAPGKERELVAAMSWRGGSTNYADSVKGRFTISRDNAKNTVYLQMKSLKPEDTAVYYCYRDQRKYGKLDYWVQGTQVTVSS	low polyreactivity
QVQLVESGGGLVQAGGSLRLSCAASGFTFGIYAMGWYRQAPGKERELVAAINVSDGSTYYADSVKGRFTISRDNAKNTVYLQMNILKPEDTAVYYCAAYLYVTIYTSYREYDYWGQGTQVTVSS	low polyreactivity
QVQLVESGGGLVQAVGSLRLSCAASGYFFSSNAMGWYSQSPGKERELVAAITASGGGTYYADSVKGRFTISRDNAQNTVYIQMKSLKPEDTAVYYCAADFNDHYYWYGQDFDYWGQGTQVTVSS	low polyreactivity
QVQLVESGGGLVQAGGSLRLSCAASGSIFSWYAMAWYRQAPGKETELVADITWTVGSTYYADSVKGRFTISRDNAKNPVYLQMNSLIPEDTAVYYWAARRVVYRYYWYSAYDYSGQGTQVTVSS	high polyreactivity
QVQLVESVRGLFQAGGSLRLSCAASGFTFYIYDMGWYRQAPGTERELVAAITWSGGRTYYADSVKGRFTISRDNAKNTVYFQMNSLKPEDTAVYYCAASYPGLSFHKYEYWGQGTQLTVSS	high polyreactivity
QVQLVESGGGLVQAGGSLRLSCAASGSIFSTYAMGWYRQAPGKERELVATIRRGGSTYYADSVKGRFTISRDNAKNTVYLQMNSLKPEETAVYYCAGTVSSYPYYRYYTWGQGTQVTVSS	high polyreactivity
QVQLGESGGGLVQAGGSLRLSCAASGRTLSYYARGWYRHAPGKEREFVAAITGSGGSTYYADSVKGRFTISRDNAKNTVYLQMHSLQPADTAVYYCNAKGLGVFTVEYYYWGQGTQVTVSS	low polyreactivity
QVQLVESGGGLVQAGGSLRLSCAASGSTVGVNAMGWYRQAPGKERELVAALSNGDNTYYADSVKGRFTISRDHAKNTVYLQMNSLKPEDTAVYYCAADQYWSWIYYPVVESDYWGQGTQVTVSS	low polyreactivity
QVQLVESGGGLVQAGGSLRLSCASSGLTFWPYVKGWYRQAPGKERELVAAIEDTGITYYADSVKGRFTISRDNAKNTVYLQMNSLTPDDTAVYYCATDWDYYFPWIYPSDAGPEDGYWGQGTQVTVSS	low polyreactivity
QVQLVESGGGLVQAGGSLRLSCAASGSIFARYTMGWYRQAPGKERELVARITSSGGSTYYADSVKGRFTISRDNAKNTVYLQMNSLKPEDTAVYYCNKAYRYYWRMEYWGQGTQVTVSS	high polyreactivity
QVQLVESGGGLVQAGGSLRLSCAASASIFLVYAMGWYRQAPGKERELVAAISRSGRTYADSVKGRFTISRDNAKNTVYLQMNSLKPEDTAVYYCAAGTKRRFEGDYWGQGTQVTVSS	high polyreactivity
QVQLVESGGGLVQAGGSLRLSCAASGSIFVYNAMGWYRQAPGKEREFVAGITFIGGSTYYADSVKGRFTISRDNAKNTVYLKMNSLKPEDTAVYYCNADVAPGIFYGYDSWGQGSQVTVSS	low polyreactivity
QVQLVESGGGLVQAGGSLRISCAASGSILVFYAMGWYRQAPGKESELVATITGSVGRTSYADSVKGRFTISRDNAKNTVYLQMNSLIPEDTAVYYCAADADTDVFYILQEYDYWGQGTQVTVSS	low polyreactivity
